Molecular target: human Flag-tagged RAC2 T108A mutant (human), P15153
Experiment: co-IP; Caki-1 cells transfected with Flag-tagged WT, S86A or T108A RAC2; interaction with NEDD4L quantified relative to WT
Conditions: remark: other sources report otherwise

B1: Neural precursor cell expressed developmentally down-regulated 4-like (NEDD4L), endogenous, Q96PU5-5 1-955 (enzyme)
chain: MATGLGEPVYGLSEDEGESRILRVKVVSGIDLAKKDIFGASDPYVKLSLYVADENRELALVQTKTIKKTLNPKWNEEFYFRVNPSNHRLLFEVFDENRLTRDDFLGQVDVPLSHLPTEDPTMERPYTFKDFLLRPRSHKSRVKGFLRLKMAYMPKNGGQDEENSDQRDDMEHGWEVVDSNDSASQHQEELPPPPLPPGWEEKVDNLGRTYYVNHNNRTTQWHRPSLMDVSSESDNNIRQINQEAAHRRFRSRRHISEDLEPEPSEGGDVPEPWETISEEVNIAGDSLGLALPPPPASPGSRTSPQELSEELSRRLQITPDSNGEQFSSLIQREPSSRLRSCSVTDAVAEQGHLPPPSVAYVHTTPGLPSGWEERKDAKGRTYYVNHNNRTTTWTRPIMQLAEDGASGSATNSNNHLIEPQIRRPRSLSSPTVTLSAPLEGAKDSPVRRAVKDTLSNPQSPQPSPYNSPKPQHKVTQSFLPPGWEMRIAPNGRPFFIDHNTKTTTWEDPRLKFPVHMRSKTSLNPNDLGPLPPGWEERIHLDGRTFYIDHNSKITQWEDPRLQNPAITGPAVPYSREFKQKYDYFRKKLKKPADIPNRFEMKLHRNNIFEESYRRIMSVKRPDVLKARLWIEFESEKGLDYGGVAREWFFLLSKEMFNPYYGLFEYSATDNYTLQINPNSGLCNEDHLSYFTFIGRVAGLAVFHGKLLDGFFIRPFYKMMLGKQITLNDMESVDSEYYNSLKWILENDPTELDLMFCIDEENFGQTYQVDLKPNGSEIMVTNENKREYIDLVIQWRFVNRVQKQMNAFLEGFTELLPIDLIKIFDENELELLMCGLGDVDVNDWRQHSIYKNGYCPNHPVIQWFWKAVLLMDAEKRIRLLQFVTGTSRVPMNGFAELYGSNGPQLFTIEQWGSPEKLPRAHTCFNRLDLPPYETFEDLREKLLMAVENAQGFEGVD
interaction, percent of the WT level (% of the WT level): 20

Source: PMC11594477
